Molecular target: pakc_dicdi pakC (UniProt Q55GV3)
Sequence (Q55GV3 whole entry): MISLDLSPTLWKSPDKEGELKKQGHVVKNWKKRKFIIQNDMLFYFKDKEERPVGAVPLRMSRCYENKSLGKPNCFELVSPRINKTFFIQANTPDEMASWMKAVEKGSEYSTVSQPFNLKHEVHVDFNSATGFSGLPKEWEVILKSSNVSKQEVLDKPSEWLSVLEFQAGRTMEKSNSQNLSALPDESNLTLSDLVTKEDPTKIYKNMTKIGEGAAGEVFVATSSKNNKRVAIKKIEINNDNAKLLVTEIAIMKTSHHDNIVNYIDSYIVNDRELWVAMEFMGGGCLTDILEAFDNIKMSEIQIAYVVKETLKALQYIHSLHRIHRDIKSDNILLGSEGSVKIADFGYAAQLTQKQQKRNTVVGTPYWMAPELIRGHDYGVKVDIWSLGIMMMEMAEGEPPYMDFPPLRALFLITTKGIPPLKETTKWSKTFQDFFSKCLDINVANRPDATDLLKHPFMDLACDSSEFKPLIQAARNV

Chain of Rho-related protein racB (Dictyostelium discoideum (Slime mold)), P34148 T17N (P34148 whole entry T17N): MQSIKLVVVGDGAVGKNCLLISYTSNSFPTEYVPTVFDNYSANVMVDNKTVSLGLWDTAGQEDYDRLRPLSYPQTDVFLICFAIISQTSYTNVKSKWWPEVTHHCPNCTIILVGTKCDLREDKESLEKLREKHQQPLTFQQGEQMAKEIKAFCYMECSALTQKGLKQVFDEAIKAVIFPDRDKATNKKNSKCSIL

## Rho-related protein racB (Dictyostelium discoideum (Slime mold)), P34148 T17N
  effect of a mutation on the interaction: decreasing interaction

Reference: IntAct's records for PubMed 15483055
